We go through 15 molecules from patent US20100221257A1 (AstraZeneca / MedImmune, published 2010).

The labels stand for the following.
B1: MoD2c IL1R1 (Fc fusion, human;mouse, UniProt P14778 18-177, looked up, not shown: a dimerising Fc or GST)
chain: LEADKCKEREEKIILVSSANEIDVRPCPLNPNEHKGTITWYKDDSKTPVSTEQASRIHQHKEKLWFVPAKVEDSGHYYCVVRNSSYCLRIKISAKFVENEPNLCYNAQAIFKQKLPVAGDGGLVCPYMEFFKNENNELPKLQWYKDCKPLLLDNIHFSGVKDKLIVMNVAEKHRGNYTCHASYTYLGKQYPITRVIEFITLEENKPTRPVIVSPANETMEVDLGSQIQLICNVTGQLSDIAYWKWNGSVIDEDDPVLGEDYYSVENPANKRRSTLITVLNISEIESRFYKHPFTCFAKNTHGIDAAYIQLIYPVTNFQK
notes: also called chimera without loop d2-e2
B2: Antibody 9GL IgG2 (antibody, V domains shown)
VH: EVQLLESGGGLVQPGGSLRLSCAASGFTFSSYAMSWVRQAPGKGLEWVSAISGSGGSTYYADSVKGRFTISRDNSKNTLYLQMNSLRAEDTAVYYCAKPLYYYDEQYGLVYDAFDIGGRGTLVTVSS
VL: QSVLTQPPSVSGAPGQRVTISCTGSSSNIGAGYDVHWYQQLPGTAPKLLIYGDTHRPSGVPDRFSGSKSGTSASLAITGLQAEDEADYYCQSYDTLLLAPQFGGGTKLTVL
notes: Germlined IgG2, lambda light chain; also called 28Q1 GL
B3: Antibody 6 IgG1 (antibody, V domains shown)
VH: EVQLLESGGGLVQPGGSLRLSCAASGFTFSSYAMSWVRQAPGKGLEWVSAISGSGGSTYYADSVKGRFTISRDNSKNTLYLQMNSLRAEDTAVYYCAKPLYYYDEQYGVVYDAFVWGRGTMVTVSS
VL: B2 VL with A76V, T78A, L96V, L97R, A99H, P100H, Q101V
notes: Non-germlined IgG1, lambda light chain
B4: Antibody 8 IgG1 (antibody, V domains shown)
VH: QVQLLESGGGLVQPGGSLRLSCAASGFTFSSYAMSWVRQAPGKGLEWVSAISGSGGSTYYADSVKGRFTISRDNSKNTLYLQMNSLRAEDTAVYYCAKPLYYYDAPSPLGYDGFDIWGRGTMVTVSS
VL: B2 VL with A76V, T78A, L96H, L98V, P100H, Q101V
notes: as for B3
B5: Antibody 5 IgG1 (antibody, V domains shown)
VH: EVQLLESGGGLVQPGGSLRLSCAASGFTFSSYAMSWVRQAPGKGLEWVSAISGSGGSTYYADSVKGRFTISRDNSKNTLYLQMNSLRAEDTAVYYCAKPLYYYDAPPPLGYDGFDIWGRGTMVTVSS
VL: B2 VL with A76V, T78A, L96A, L97G, L98G, A99G, P100H, Q101H
notes: as for B3
B6: Antibody 7 IgG1 (antibody, V domains shown)
VH: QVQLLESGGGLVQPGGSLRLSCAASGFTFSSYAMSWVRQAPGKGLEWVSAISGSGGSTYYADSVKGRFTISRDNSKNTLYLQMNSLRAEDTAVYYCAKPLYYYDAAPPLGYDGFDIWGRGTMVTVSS
VL: B2 VL with A76V, T78A, L96D, L97A, L98A, A99R, P100H
notes: as for B3
B7: Antibody 9 IgG1 (antibody, V domains shown)
VH: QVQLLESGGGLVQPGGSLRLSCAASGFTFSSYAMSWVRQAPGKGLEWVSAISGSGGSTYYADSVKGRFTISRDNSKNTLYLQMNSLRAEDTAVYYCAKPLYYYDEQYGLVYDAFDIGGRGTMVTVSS
VL: B2 VL with A76V, T78A
notes: as for B3
B8: Antibody 2 IgG1 (antibody, V domains shown)
VH: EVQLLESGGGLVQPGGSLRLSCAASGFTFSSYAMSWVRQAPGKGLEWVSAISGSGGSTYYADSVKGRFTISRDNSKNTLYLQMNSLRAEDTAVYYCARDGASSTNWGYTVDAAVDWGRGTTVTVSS
VL: QAVLTQPSSASGTPGQRVTISCSGSSSNIGSNYVFWYQQFPGTAPQLLVKWNNQRPSGVPDRFSGSKSGTSASLAISGLRSEDEADYYCAAWDDHLEQLHFGGGTKLTVL
notes: as for B3
B9: Antibody 3 IgG1 (antibody, V domains shown)
VH: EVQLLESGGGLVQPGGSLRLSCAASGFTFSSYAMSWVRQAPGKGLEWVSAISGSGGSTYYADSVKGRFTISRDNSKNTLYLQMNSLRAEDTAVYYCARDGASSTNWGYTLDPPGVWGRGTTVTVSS
VL: B8 VL with H95A, L96A, E97R, Q98V, H100L
notes: as for B3
B10: Antibody 4 IgG1 (antibody, V domains shown)
VH: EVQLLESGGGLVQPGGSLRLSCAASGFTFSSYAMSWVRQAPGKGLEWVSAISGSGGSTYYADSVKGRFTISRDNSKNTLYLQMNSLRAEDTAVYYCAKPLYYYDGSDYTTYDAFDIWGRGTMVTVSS
VL: B2 VL with A76V, T78A, L96S, L98S, A99G, P100S, Q101L
B11: Antibody 1 IgG1 (antibody, V domains shown)
VH: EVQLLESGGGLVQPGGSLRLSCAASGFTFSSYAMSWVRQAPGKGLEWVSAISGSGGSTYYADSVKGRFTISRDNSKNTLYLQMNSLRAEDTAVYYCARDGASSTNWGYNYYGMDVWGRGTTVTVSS
VL: B8 VL with H95S, E97S, Q98G, H100V
B12: MoD1b IL1R1 (Fc fusion, human;mouse, UniProt P14778 18-42, looked up, not shown: a dimerising Fc or GST)
chain: LEADKCKEREEKIILVSSANEIDVRKCPLTPNKMHGDTITWYKDDSKTPVSTEQASRIHQHKEKLWFVPAKVEDSGHYYCVVRNSSYCLRIKISAKFVENEPNLCYNAQAIFKQKLPVAGDGGLVCPYMEFFKNENNELPKLQWYKDCKPLLLDNIHFSGVKDRLIVMNVAEKHRGNYTCHASYTYLGKQYPITRVIEFITLEENKPTRPVIVSPANETMEVDLGSQIQLICNVTGQLSDIAYWKWNGSVIDEDDPVLGEDYYSVENPANKRRSTLITVLNISEIESRFYKHPFTCFAKNTHGIDAAYIQLIYPVTNFQK
notes: range 1-42;range 45-56;range 54-336
B13: MoD3a2 IL1R1 (Fc fusion, human;mouse, UniProt P14778 18-272, looked up, not shown: a dimerising Fc or GST)
chain: B1 chain with K163R, V256F, G258A, Y262Q, S263F, N266H, A268S, N269T, R272K
notes: range 1-272;range 276-292;range 290-336
B14: MoD3b IL1R1 (Fc fusion, human;mouse, UniProt P14778 18-309, looked up, not shown: a dimerising Fc or GST)
chain: LEADKCKEREEKIILVSSANEIDVRPCPLNPNEHKGTITWYKDDSKTPVSTEQASRIHQHKEKLWFVPAKVEDSGHYYCVVRNSSYCLRIKISAKFVENEPNLCYNAQAIFKQKLPVAGDGGLVCPYMEFFKNENNELPKLQWYKDCKPLLLDNIHFSGVKDRLIVMNVAEKHRGNYTCHASYTYLGKQYPITRVIEFITLEENKPTRPVIVSPANETMEVDLGSQIQLICNVTGQLSDIAYWKWNGSVIDEDDPVLGEDYYSVENPANKRRSTLITVLNISEIESRFYKHPFICVVKNTNIFESAHVQLIYPVTNFQK
B15: MoD3 HuD1-D2 IL1R1 (Fc fusion, human;mouse, UniProt P14778 18-227, looked up, not shown: a dimerising Fc or GST)
chain: LEADKCKEREEKIILVSSANEIDVRPCPLNPNEHKGTITWYKDDSKTPVSTEQASRIHQHKEKLWFVPAKVEDSGHYYCVVRNSSYCLRIKISAKFVENEPNLCYNAQAIFKQKLPVAGDGGLVCPYMEFFKNENNELPKLQWYKDCKPLLLDNIHFSGVKDRLIVMNVAEKHRGNYTCHASYTYLGKQYPITRVIEFITLEENKPTRPVILSPRNETIEADPGSMIQLICNVTGQFSDLVYWKWNGSEIEWNDPFLAEDYQFVEHPSTKRKYTLITTLNISEVKSQFYRYPFICVVKNTNIFESAHVQLIYPVPDFK
notes: range 1-227;range 231-338

Numbering of substitutions follows the chain as printed.

The target in one assay is Antibody 6 (Eu3+ cryptate labelled, Example 5). The assay is described as follows: HTRF competition assay, against human IL-1R1 as reference. Here is the method: (§1) Antibody was cryptate labelled with Eu³′ Cryptate labelling kit according to the manufacturer's instructions (CisBio International Cat No. 62EUSPEA) and IL-1R1/Fc (SEQ ID NO: 134, see Material and Methods) was Biotin labelled with EZ Link Sulfo-NHS-Biotin (Perbio Cat No. 21335) according to the manufacturer's instructions. Assay conditions were 0.25 nM Cryptate labelled antibody, 0.3 nM biotin labelled IL-1R1/Fc, 2.5 nM streptavidin XL^{ent!} (CisBio International Cat. No. 611SAXLB) in 1×D-PBS, 0.1% BSA, 0.4M potassium fluoride in a total volume of […] in a 384 well shallow well costar plate (3676). To the assay a dilution series (from maximum of 100 nM to 0.0017 nM) of test proteins was added and the assay incubated for 3 hours at room temperature. FRET signal was detected using a PerkinElmer EnVision plate reader using a 320 nm excitation filter and 620 nm and 665 nm emission filters. Results were calculated from the 665/620 ratio as a percentage of specific binding (signal with no competitor antigen). Results were analysed with Prism (GraphPad Software) using the sigmoidal dose response model.
Antibody binding of chimeric molecules was tested in an HTRF (Homogeneous Time Resolved Fluorescence) competition assay. […] From inhibition curves IC₅₀ values for human IL-1R1, mouse IL-1R1 and chimeric molecules were calculated (Table 12). […]
In general terms: In TR-FRET formats the signal depends on donor and acceptor labels being close together.
Regarding B1, the “fold higher IC50 than human IL-1R1” value is above 3 fold.

In a further assay the target is T1, cynomolgus IL-1R1, endogenous on CYNOM-K1 cells (cynomolgus monkey, UniProt A0A7N9CMI5 18-569).
T1 sequence: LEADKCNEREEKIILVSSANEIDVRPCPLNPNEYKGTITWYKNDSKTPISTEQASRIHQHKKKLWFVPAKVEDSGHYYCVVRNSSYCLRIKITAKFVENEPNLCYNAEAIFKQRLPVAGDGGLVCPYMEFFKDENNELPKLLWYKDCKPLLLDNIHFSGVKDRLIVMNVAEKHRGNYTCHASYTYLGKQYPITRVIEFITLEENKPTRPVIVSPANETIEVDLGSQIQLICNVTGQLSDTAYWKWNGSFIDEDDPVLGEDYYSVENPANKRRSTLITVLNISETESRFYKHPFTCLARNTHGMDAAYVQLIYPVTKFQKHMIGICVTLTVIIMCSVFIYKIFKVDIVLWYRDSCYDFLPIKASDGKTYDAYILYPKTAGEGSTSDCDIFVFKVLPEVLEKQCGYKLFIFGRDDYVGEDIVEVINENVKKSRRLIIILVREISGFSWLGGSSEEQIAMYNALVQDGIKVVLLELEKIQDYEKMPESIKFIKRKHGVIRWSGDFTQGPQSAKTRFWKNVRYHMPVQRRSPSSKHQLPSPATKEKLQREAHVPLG
As to the kind of experiment: cell-based or functional assay.
Regarding B2, the “IC50, inhibition of IL-1β induced IL-8 release from CYNOM-K1 cells, experiment 1” value was determined as 1.2 nM and the “IC50, inhibition of IL-1β induced IL-8 release from CYNOM-K1 cells, experiment 2” value was found to be 1.1 nM.

Another assay has as its target T2, human histidine tagged (HIS) IL1RFc fusion protein (human).
T2 construct: Biotinylated or cryptate labelled in some assays; also called human HIS IL1RFc; huIL-1R1-Fc
As to the kind of experiment: HTRF receptor-ligand assay, IgG inhibiting HIS FLAG IL-1Ra binding to cryptate labelled human HIS IL1RFc. Here is the method: The ability of lead antibodies to inhibit IL-1Ra to IL-1R1 was assessed in a receptor-ligand binding HTRF® (Homogeneous Time-Resolved Fluorescence) assay format for inhibition of HIS FLAG tagged human IL1Ra (In house, E. Coli expressed; HIS FLAG IL-1RA) binding to human histidine tagged (HIS) IL1RFc fusion protein (in house), as described in the Materials and methods section.
A titration of inhibitor was used in order to establish the clone potency as measured by IC₅₀ values in the assay. All dilutions were carried out in assay buffer as for ligand binding assay above. 5 μl of a titration of inhibitor was added to a 384 well low volume assay plate (Costar 3676). This was then followed by addition of 0.4 nM cryptate labelled HIS IL1RFc. Assay plates were then sealed and incubated at room temperature in dark for 1 hour.
For the molecule B3, the IC50 was 0.1 nM. That is a sub-nanomolar value.

B4 showed an IC50 of 0.156 nM. Compared with the last molecule, the IC50 is about 1.6-fold higher. The molecule B5 showed an IC50 of 0.186 nM. The molecule B2 gave an IC50 of 0.208 nM. The IC50 values of the last two molecules are within 1.5-fold of each other.

For B6, the IC50 is 0.168 nM. The IC50 values of the last two molecules are within 1.5-fold of each other. Consider B7, for which the IC50 amounted to 0.156 nM. This IC50 and that of the molecule before are within 1.5-fold of each other. Take B8: the IC50 stood at 0.256 nM.

B9 gave an IC50 of 0.469 nM.

A further assay deals with T3, human IL-1R1, endogenous on human cells (HeLa cells; whole blood) (human, UniProt P14778 18-569).
T3 sequence (looked up): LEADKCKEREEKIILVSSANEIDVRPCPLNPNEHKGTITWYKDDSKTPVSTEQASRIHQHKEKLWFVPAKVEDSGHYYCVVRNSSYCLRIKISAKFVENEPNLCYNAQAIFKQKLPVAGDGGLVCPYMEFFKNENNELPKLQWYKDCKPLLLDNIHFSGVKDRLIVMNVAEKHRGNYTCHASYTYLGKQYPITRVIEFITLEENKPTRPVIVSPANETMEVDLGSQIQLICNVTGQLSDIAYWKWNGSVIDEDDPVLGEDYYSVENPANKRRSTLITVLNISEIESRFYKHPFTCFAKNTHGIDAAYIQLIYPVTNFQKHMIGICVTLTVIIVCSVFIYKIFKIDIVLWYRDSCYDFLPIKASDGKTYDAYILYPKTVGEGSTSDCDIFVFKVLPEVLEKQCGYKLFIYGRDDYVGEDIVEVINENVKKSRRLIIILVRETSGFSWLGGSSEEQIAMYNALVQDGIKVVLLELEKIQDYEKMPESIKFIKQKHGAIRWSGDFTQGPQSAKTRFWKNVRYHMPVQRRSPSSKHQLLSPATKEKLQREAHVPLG
The assay is described as follows: cell-based or functional assay.
With B10, the “IC50, inhibition of human IL-1β induced IL-8 release from HeLa cells” value was found to be 22 nM. Still for that read-out and setting: in the case of B11 it was 95.9 nM.

Another assay addresses Antibody 6 (Eu3+ cryptate labelled, Example 5). The assay is described as follows: HTRF competition: unlabelled test protein against biotin labelled human IL-1R1/Fc binding to cryptate labelled antibody. As to the method: as §1
Antibody binding of chimeric molecules was tested in an HTRF (Homogeneous Time Resolved Fluorescence) competition assay. Molecules which bound antibody at the same paratope as human IL-1R1 inhibited the binding interaction, leading to a reduction in signal. From inhibition curves IC₅₀ values for human IL-1R1, mouse IL-1R1 and chimeric molecules were calculated (Table 12). […] Chimeras that gave similar IC₅₀ values to native human IL-1R1 still contained the epitope.
For B12, the IC50 is 0.201 nM. B1 registered an IC50 of 0.637 nM. In turn, B13 yielded an IC50 of 0.268 nM. B14: the IC50 came out at 0.337 nM. The IC50 values of the last two molecules are within 1.5-fold of each other. As for B15, the IC50 turned out to be 0.147 nM. Compared with the last molecule, the IC50 is about 2.3-fold lower.

Another assay deals with T3, human IL-1R1, endogenous on human cells …. As to the kind of experiment: cell-based or functional assay. The source holds these as a separate data set.
Take B3: the “IC50, inhibition of IL-1 beta induced IL-8 release in HeLa cells (IgG1)” value (from here on “IC50, inhibition … (IgG1)”) is 0.0078 nM.

B4: the “IC50, inhibition … (IgG1)” value is 0.0293 nM. Consider B5, for which the “IC50, inhibition … (IgG1)” value was found to be 0.032 nM. On to B2, for which the “IC50, inhibition of IL-1 alpha induced IL-8 release in HeLa cells (GL IgG2)” value stood at 0.0162 nM and the “IC50, inhibition of IL-1 beta induced IL-8 release in HeLa cells (GL IgG2)” value turned out to be 0.0069 nM.

With B6, the “IC50, inhibition … (IgG1)” value stood at 0.0426 nM.

For B7, the “IC50, inhibition … (IgG1)” value came to 0.0115 nM.

With B8, the “IC50, inhibition … (IgG1)” value amounted to 0.0775 nM. Same read-out and setting: in the case of B9 it was 0.0494 nM.

What is called IC50 is the concentration at which inhibition is half-maximal. Read a low IC50 as inhibition by little substance.
